Measurements: patent US20220073616A1 (Merck KGaA, published 2022)
Like-named read-outs stand apart in the source and are kept apart here.

What was measured:
[1] = molecular target: T1, T Cell Immunoglobulin and Mucin Domain-3 (TIM-3) on human blood cells (human, UniProt Q8TDQ0 22-301); assay: Flow cytometry on human whole blood, target occupancy on CD14+ monocytes, donor KP46315. Unoccupied TIM-3 was detected with the competing anti-TIM-3 (2E2)-APC.
T1 construct: whole, on cells; also called TIM-3 on CD14+ monocytes; HAVCR2

[2] = molecular target: T1, T Cell Immunoglobulin and Mucin …; assay: flow cytometry, target occupancy on CD14+ monocytes in human whole blood; unoccupied TIM-3 detected with the competing anti-TIM-3(2E2)-APC; average of 10 donors
[3] = molecular target: T1, T Cell Immunoglobulin and Mucin …; assay: Flow cytometry on human whole blood, target occupancy on CD14+ monocytes, donor KP46318 (assigned by elimination of the other line styles). Unoccupied TIM-3 was detected with the competing anti-TIM-3 (2E2)-APC.
[4] = molecular target: T2, wild-type human TIM-3 (hu TIM-3) (human, UniProt Q8TDQ0 22-200, limits assumed); assay: SPR (Biacore 4000), antibody captured via anti-human Fc
T2 construct: Soluble protein used for SPR; also called wild-type TIM-3

[5] = molecular target: T1, T Cell Immunoglobulin and Mucin …; assay: Flow cytometry on human whole blood, target occupancy on CD14+ monocytes, donor KP46231. Unoccupied TIM-3 was detected with the competing anti-TIM-3 (2E2)-APC.
rhTIM-3-Fc AF647 = molecular target: T3, rhTIM-3-Fc AF647 (human, UniProt Q8TDQ0 22-200, AF647 label); assay: flow cytometry; M6903 pre-incubated with rhTIM-3-Fc AF647, inhibition of its binding to PtdSer on apoptotic Jurkat cells
T3 construct: also called rhTIM-3 AF647; not shown: Fc part

[6] = molecular target: T2, wild-type human TIM-3 (hu TIM-3); assay: SPR (Biacore 4000), antibody captured via anti-human Fc; remark: listed apart in the source

EC50 (read off the curve) [1]: ~0.07 µg/mL
EC50 [2]: 0.111 µg/mL
EC50 (read off the curve) [3]: ~0.07 µg/mL
Kd [4]: 6.2 nM
EC50 (read off the curve) [5]: ~0.07 µg/mL
IC50 (rhTIM-3-Fc AF647): 4.44 nM
Kd [6]: 5.7 nM
B1: M6903 (anti-TIM3-3903E11(VL1.3,VH1.2)-IgG2h(FN-AQ,322A)-delK) (antibody, V domains shown)
VH: not shown
VL: QSALTQPRSVSGSPGQSVTISCTGTSSDVGGYNYVSWYQQHPGKAPKLMIYDVSKRPSGVPDRFSGSKSGNTASLTISGLQAEDEADYYCSSYADSVVFGGGTKVTVLG
notes: Anti-TIM-3 (A16-019-1), used in the target occupancy assay, is said to be identical to M6903 but produced in Expi293F instead of CHOK1SV cells; it is kept under this molecule; also called 3903E11 (VL1.3,VH1.2)-IgG2h(FN-AQ,322A)-delK antibody; anti-TIM-3 (A16-019-1)
